The values that follow come from paper PMC10864410, “The pathogen-encoded signalling receptor Tir exploits host-like intrinsic disorder for infection” (Communications Biology, 2024).

To fix the notation:
B2: pC-Tir, C-Tir (residues 388-550 of EPEC O127:H6 Tir) phosphorylated by Fyn at four tyrosines (domain or fragment)
chain: RRNQPAEQTTTTTTHTVVQQQTGGNTPAQGGTDATRAEDASLNRRDSQGSVASTHWSDSSSEVVNPYAEVGGARNSLSAHQPEEHIYDEVAADPGYSVIQNFSGSGPVTGRLIGTPGQGIQSTYALLANSGGLRLGMGGLTSGGESAVSSVNAAPTPGPVRFV
modifications: phosphotyrosine at Y454, Y474, Y483 and Y511

Data set [1] concerns the molecule itself. In words: SEC-SAXS; synchrotron SEC-SAXS, B21 beamline, Shodex KW403-4F column; 100 mM Tris-HCl pH 8.0, 150 mM NaCl, 2 mM DTT, 1 mM EDTA; 50 uL of 10.0-25.0 mg/mL injected; dimeric single-peak region.
The target of data set [2] is T1, C-terminal SH2 domain (C-SH2) of human phosphatase SHP-1, residues 101-217 (human, UniProt P29350 101-217).
T1 chain: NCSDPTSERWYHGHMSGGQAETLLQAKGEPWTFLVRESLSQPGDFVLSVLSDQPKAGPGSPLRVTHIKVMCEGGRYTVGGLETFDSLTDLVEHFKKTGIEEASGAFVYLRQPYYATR
As to the kind of experiment: NMR; site pY454, apparent.

Data set [3] deals with T1, C-terminal SH2 domain (C-SH2) of human …. As to the kind of experiment: NMR; site pY483, apparent.
Data set [4] has the same target. In words: NMR; site pY474, apparent.
The target is the same in data set [5]. In words: NMR; site pY511, apparent.
Data set [6] concerns the target B2. As to the kind of experiment: NMR; site pY454 (apparent local Kd).
In data set [7] the target is B2. In words: NMR; site pY511 (apparent local Kd).
The target in data set [8] is T2, C-Tir, C-terminal cytosolic region of Tir of EPEC O127:H6, residues 388-550, unphosphorylated (Enteropathogenic E. coli (EPEC) O127:H6, UniProt B7UM99 388-550).
T2 construct: Translocated intimin receptor Tir, EPEC O127:H6, residues 388-550; Trx-His6 tag cleaved on-column with HRV-3C protease; 15N-labelled for the NMR titration; also called unphosphorylated C-Tir; Tir C-terminus; source: E. coli BL21 Star (DE3) pLysS, lysed by boiling, purified (Strep-Tactin XT, Superdex 200); not shown: Trx, N-terminal, cleaved; His6, N-terminal, cleaved; Strep-tag, C-terminal, kept
T2 sequence: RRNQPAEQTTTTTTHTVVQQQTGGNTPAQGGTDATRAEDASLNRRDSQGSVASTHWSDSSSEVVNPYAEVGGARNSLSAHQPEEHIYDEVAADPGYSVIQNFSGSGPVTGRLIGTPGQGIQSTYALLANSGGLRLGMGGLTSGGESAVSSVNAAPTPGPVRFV
As to the kind of experiment: NMR titration; unlabelled C-SH2 added to 15N-labelled unphosphorylated C-Tir (2.0 and 8.0 equivalents shown); [15N-1H]-HSQC peak intensities of A512-A515 fitted globally to a 1:1 model; apparent KD. Conditions: both partners purified.

In data set [9] the target is B2. As to the kind of experiment: NMR; site pY474 (apparent local Kd).
Data set [10] concerns the target B2. In words: NMR; site pY483 (apparent local Kd).
Data set [11] has as its target T3, pC-Tir, C-Tir (residues 388-550 of EPEC O127:H6 Tir) phosphorylated by Fyn at four tyrosines (Enteropathogenic E. coli (EPEC) O127:H6, UniProt B7UM99 388-550, phosphotyrosine at Y454, Y474, Y483 and Y511).
T3 construct: Translocated intimin receptor Tir, EPEC O127:H6, residues 388-550; Same construct as m4, phosphorylated in vitro; 15N-labelled for the NMR titration; also called 4-fold phosphorylated state; phosphorylated C-Tir; not shown: Trx, N-terminal, cleaved; His6, N-terminal, cleaved; Strep-tag, C-terminal, kept
T3 sequence: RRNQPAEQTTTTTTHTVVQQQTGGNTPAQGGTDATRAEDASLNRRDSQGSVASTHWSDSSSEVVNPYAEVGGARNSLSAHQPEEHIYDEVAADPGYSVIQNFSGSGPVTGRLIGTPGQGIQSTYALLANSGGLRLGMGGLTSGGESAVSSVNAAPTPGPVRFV
In words: NMR titration; 15N-labelled pC-Tir (95 uM) titrated with 0.25, 0.5, 0.75, 1, 2, 4 and 6 equivalents of unlabelled C-SH2; [15N-1H]-HSQC peak intensities clustered by phosphorylation site and fitted globally to a 1:1 model; apparent KD for each site. The conditions noted are these: both partners purified.

B1: N-Tir, N-terminal cytosolic region of the translocated intimin receptor (Tir) of EPEC O127:H6, residues 1-233 (domain or fragment)
chain: MPIGNLGNNVNGNHLIPPAPPLPSQTDGAARGGTGHLISSTGALGSRSLFSPLRNSMADSVDSRDIPGLPTNPSRLAAATSETCLLGGFEVLHDKGPLDILNTQIGPSAFRVEVQADGTHAAIGEKNGLEVSVTLSPQEWSSLQSIDTEGKNRFVFTGGRGGSGHPMVTVASDIAEARTKILAKLDPDNHGGRQPKDVDTRSVGVGSASGIDDGVVSETHTSTTNSSVRSDPK
notes: Translocated intimin receptor Tir, EPEC O127:H6, residues 1-233, from a synthetic E. coli codon-optimised gene of the full-length protein; Trx-His6 tag cleaved in vivo by co-expressed TEV protease; also called Tir's N-terminal tail; source: E. coli BL21 Star (DE3) pLysS, purified (Strep-Tactin XT, Superdex 200); not shown: Trx, N-terminal, cleaved; His6, N-terminal, cleaved; Strep-tag, …
Turning to B1, the “stoichiometry N” value in data set [1] turned out to be 2.

As to B2, the Kd amounted to 86.1 µM in data set [2], 9.25 µM in data set [3], 2660 nM in [4] and 6.94 µM in [5].

B3: C-terminal SH2 domain (C-SH2) of human phosphatase SHP-1, residues 101-217 (domain or fragment, UniProt P29350 101-217, looked up)
chain: NCSDPTSERWYHGHMSGGQAETLLQAKGEPWTFLVRESLSQPGDFVLSVLSDQPKAGPGSPLRVTHIKVMCEGGRYTVGGLETFDSLTDLVEHFKKTGIEEASGAFVYLRQPYYATR
notes: Tyrosine-protein phosphatase SHP-1, human, C-terminal SH2 domain, residues 101-217; PCR-amplified from the vector pGEX SHP-1(NC)-SH2; Trx-His6 tag cleaved on-column with HRV-3C protease; unlabelled in the NMR titrations; also called SHP-1 C-SH2 domain; source: E. coli BL21 Star (DE3) pLysS, purified (Strep-Tactin XT, Superdex 200); not shown: Trx, N-terminal, cleaved; His6, N-terminal, cleaved
For the molecule B3, the Kd in [6] is 86.1 µM; in [7], 6.94 µM; in [8] it was about 68.5 µM; in data set [9], 2660 nM; in [10] it was 9.25 µM. Also, the “fold enhancement of binding at the Y511 site against unphosphorylated C-Tir” value in data set [11] is about 10 fold.

B4: NS-Tir, N-terminal structured region of Tir (N-Tir 61-200) of EPEC O127:H6 (domain or fragment)
chain: VDSRDIPGLPTNPSRLAAATSETCLLGGFEVLHDKGPLDILNTQIGPSAFRVEVQADGTHAAIGEKNGLEVSVTLSPQEWSSLQSIDTEGKNRFVFTGGRGGSGHPMVTVASDIAEARTKILAKLDPDNHGGRQPKDVDT
notes: Translocated intimin receptor Tir, EPEC O127:H6, residues 61-200; Trx-His6 tag cleaved in vivo by co-expressed TEV protease; source: E. coli BL21 Star (DE3) pLysS, purified (Strep-Tactin XT, Superdex 200); not shown: Trx, N-terminal, cleaved; His6, N-terminal, cleaved; Strep-tag, C-terminal, kept
Turning to B4, the “stoichiometry N” value in data set [1] came out at 2.
